Values of other authors as cited in patent US20250241861A1, “Mechano-Sensitive Microcapsules For Drug Delivery” (The Trustees of the University of Pennsylvania, priority 2015, published 2025).

Key:
engineered cartilage = conditions: 10 ng/ml, 5 days post-injury
[1] = tested on: MMP activity in chondrocytes; conditions: 10 ng/ml, after inflammatory stimulation of chondrocytes

B1: TGF-β3: transforming growth factor beta, anabolic compound / chondrogenic factor (protein, UniProt P10600 301-412, looked up)
Transforming growth factor …: ALDTNYCFRNLEENCCVRPLYIDFRQDLGWKWVHEPKGYYANFCSGPCPYLRSADTTHSTVLGLYNTLNPEASASPCCVPQDLEPLTILYYVGRTPKVEQLSNMVVKSCKCS
- reduction of GAG loss compared to injured controls (engineered cartilage): about 30%
- MMP activity [1]: reduce MMP activity
